In PMC4525382, “Functional characterization and expression analysis of rice δ^1-pyrroline-5-carboxylate dehydrogenase provide new insight into the regulation of proline and arginine catabolism” (Frontiers in Plant Science, 2015):

Columns and labels:
[1] = molecular target: T1, rice P5C dehydrogenase (OsP5CDH) (Oryza sativa, UniProt B9FLB9); test: NAD(P)H absorbance at […] nm, non-linear regression; type: biochemical
T1 construct: gene Os05g0536400; mature form lacking the 16-residue predicted mitochondrial transit peptide; N-terminal His6 tag (pET151, TEV-cleavable; tag without effect); E. coli BL21(DE3) pLysS; monomer 57,670 Da; homotetramer 259 kDa
T1 sequence (B9FLB9 17-550): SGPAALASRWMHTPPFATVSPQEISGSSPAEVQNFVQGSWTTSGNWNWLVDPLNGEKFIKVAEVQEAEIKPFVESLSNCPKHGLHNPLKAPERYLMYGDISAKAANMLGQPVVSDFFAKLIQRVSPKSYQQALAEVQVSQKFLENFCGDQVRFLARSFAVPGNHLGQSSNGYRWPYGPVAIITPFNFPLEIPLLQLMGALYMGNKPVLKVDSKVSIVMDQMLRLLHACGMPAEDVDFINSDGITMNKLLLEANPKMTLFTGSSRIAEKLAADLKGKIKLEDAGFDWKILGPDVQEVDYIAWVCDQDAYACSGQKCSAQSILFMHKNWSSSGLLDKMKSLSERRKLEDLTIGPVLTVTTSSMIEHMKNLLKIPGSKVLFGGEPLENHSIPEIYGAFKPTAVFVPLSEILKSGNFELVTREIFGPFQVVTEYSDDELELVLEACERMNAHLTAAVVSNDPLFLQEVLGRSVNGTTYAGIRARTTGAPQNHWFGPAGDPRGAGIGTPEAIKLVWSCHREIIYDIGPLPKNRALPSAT

[2] = molecular target: T1, rice P5C dehydrogenase (OsP5CDH); test: NAD(P)H absorbance at […] nm, kinetic analysis; type: biochemical
[3] = molecular target: rice P5C dehydrogenase, truncated version lacking the predicted mitochondrial transit peptide (Oryza sativa (rice)); test: SEC; gel permeation on Superose 12 HR 10/30; 100 uL of purified protein at 0.5 mg/mL; 50 mM Tris-HCl pH 7.75, 250 mM NaCl (same pattern from 250 mM to 1 M NaCl); column calibrated with mass markers; six runs
[4] = substrate: NC(=O)c1ccc[n+]([C@@H]2O[C@H](COP(=O)(O)OP(=O)(O)OC[C@H]3O[C@@H](n4cnc5c(N)ncnc54)[C@H](OP(=O)(O)O)[C@@H]3O)[C@@H](O)[C@H]2O)c1; test: purified protein; type: biochemical, Oryza sativa; conditions: 1 mM L-P5C, 50 mM Hepes-KOH pH 7.5, 35 °C, varied: cofactor
[5] = substrate: NC(=O)c1ccc[n+]([C@@H]2O[C@H](COP(=O)(O)OP(=O)(O)OC[C@H]3O[C@@H](n4cnc5c(N)ncnc54)[C@H](O)[C@@H]3O)[C@@H](O)[C@H]2O)c1; test: purified protein; type: biochemical, Oryza sativa; conditions: 1 mM L-P5C, 50 mM Hepes-KOH pH 7.5, 35 °C, varied: cofactor
[6] = substrate: O=C(O)[C@@H]1CCC=N1; test: purified protein; type: biochemical, Oryza sativa; conditions: 10 mM NAD+ co-substrate, 50 mM Hepes-KOH pH 7.5, 35 °C

Q: What does the source list for `N=C(N)NCCC[C@H](N)C(=O)O` [arginine]?
A: IC50 [1]: 87 ± 11 mM; Ki [2]: 62.3 ± 2.4 mM

Q: How did the stoichiometry N [3] turn out when “rice P5C dehydrogenase, truncated version lacking the predicted mitochondrial transit peptide (enzyme)” was run?
A: 4

B1: rice P5C dehydrogenase (OsP5CDH) (Oryza sativa Japonica Group) (protein)
chain: T1 sequence (B9FLB9 17-550)
notes: mature form lacking the 16-residue predicted mitochondrial transit peptide; N-terminal His6 tag (pET151, TEV-cleavable; tag without effect); E. coli BL21(DE3) pLysS; monomer 57,670 Da; homotetramer 259 kDa
Q: What does the source list for B1?
A: Km [4]: 4695 ± 462 µM; Vmax [4]: 49.2 ± 1.7 nkat (mg protein)^−1; kcat [4]: 3 s⁻¹; Km [5]: 644 ± 30 µM; Vmax [5]: 196.9 ± 2.1 nkat (mg protein)^−1; kcat [5]: 12 s⁻¹; Km [6]: 358 ± 14 µM
